This note sets out measurements from paper doi:10.1101/2025.02.27.640524 (bioRxiv, 2025).

The target in this test is T1, VelB-GFP (full length A. nidulans Velvet-like B fused to GFP) (Aspergillus nidulans, UniProt C8VTS4 1-369).
T1 sequence: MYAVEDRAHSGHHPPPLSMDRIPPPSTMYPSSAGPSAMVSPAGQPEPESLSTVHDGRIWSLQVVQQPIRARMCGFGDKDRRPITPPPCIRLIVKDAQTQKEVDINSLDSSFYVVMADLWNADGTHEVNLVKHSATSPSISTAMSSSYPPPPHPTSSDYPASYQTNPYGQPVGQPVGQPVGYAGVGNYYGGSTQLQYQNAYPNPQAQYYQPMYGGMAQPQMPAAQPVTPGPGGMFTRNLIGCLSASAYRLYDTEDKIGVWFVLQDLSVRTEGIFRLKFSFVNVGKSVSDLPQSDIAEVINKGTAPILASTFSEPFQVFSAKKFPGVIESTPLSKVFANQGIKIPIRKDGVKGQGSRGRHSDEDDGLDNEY
Kind of test: co-IP.

B1: VosA-HA (A. nidulans VosA with HA tag) (natural protein)
chain: MSAANYPDPSLPRPSTSDDFELIVRQNPNRARVAGGKEKERKPVDPPPIVQIRVREEGTYLAQHYLQSPYFFMSCSLYDAQEDAPASIPPSTALTGTLVSSLHRLKDVDNTDGGFFVWGDLSIKVEGDFRLKFSLFEMRKTDVVFLKSIVSERFTVSPPKSFPGMAESTFLSRSFADQGVKLRIRKEPRTLIKRTAPRPEEYPQAAIPRSPSDRTAMQIPGSSYPAPPYQPTSRDYSYYAPVKRQRTSVDYGARGMYDADGRMRQMETYPQTATLYGQPGGYPTPMMGYPSGHGGVPDYAMSYGLPPSAQVPQMQDPAAQSRSSQQATMQSLGMVNPPGTPTPDSARAMMQQAYPRPQYSASTAVLPPLQQSRNYPQGTNGATRGYYEQSPQATPILPSQPLGTSEAERYGVPPGHTGYDHTGSANGTPR
With B1, the “fold abundance of co-precipitated VosA against the VelB^ΔIDD-GFP strain” value came to 10 fold.
